Experimental data as given in patent US20140242095A1.
Numbering of substitutions follows the chain as printed.

Molecular target: NOD mouse SIRPα-Fc fusion protein (mouse (NOD strain)) (UniProt P97797)
Test: competitive ELISA

B1: SIRP29-AM4-1 Fab (Fab, V domains shown)
VH: EVQLVESGGGLVQPGGSLRLSCAASGFNISYYFIHWVRQAPGKGLEWVASVYSSFGYTYYADSVKGRFTISADTSKNTAYLQMNSLRAEDTAVYYCARFTFPGAMDGFFGAYLGSLDYWGQGTLVTVSS
VL: DIQMTQSPSSLSASVGDRVTITCRASQSVSSAVAWYQQKPGKAPKLLIYSASSLYSGVPSRFSGSRSGTDFTLTISSLQPEDFATYYCQQAVNWVGALVTFGQGTKVEIK
B1 was tested, and the fold improvement in affinity against parent 29-AM3-35 was 2 fold.

B2: SIRP29-AM4-5 Fab (Fab, V domains shown)
VH: B1 VH with A104L, M105F
VL: B1 VL
B2 showed a fold improvement in affinity against parent 29-AM3-35 of 2 fold.
